For assay [1], the target named is macaca fascicularis α2β1 integrin on platelets (macaca fascicularis). Put plainly: FACS of macaca blood platelets, secondary antibody only, without primary antibody (negative control).
Assay [2] has as its target human α2β1 integrin on human platelets (human) (UniProt P17301). The experiment in a line: FACS of human blood platelets, secondary antibody only, without primary antibody (negative control).

Sequence of human α2β1 integrin on human platelets (human) (P17301 30-1181 limits assumed, chain 1 of 2): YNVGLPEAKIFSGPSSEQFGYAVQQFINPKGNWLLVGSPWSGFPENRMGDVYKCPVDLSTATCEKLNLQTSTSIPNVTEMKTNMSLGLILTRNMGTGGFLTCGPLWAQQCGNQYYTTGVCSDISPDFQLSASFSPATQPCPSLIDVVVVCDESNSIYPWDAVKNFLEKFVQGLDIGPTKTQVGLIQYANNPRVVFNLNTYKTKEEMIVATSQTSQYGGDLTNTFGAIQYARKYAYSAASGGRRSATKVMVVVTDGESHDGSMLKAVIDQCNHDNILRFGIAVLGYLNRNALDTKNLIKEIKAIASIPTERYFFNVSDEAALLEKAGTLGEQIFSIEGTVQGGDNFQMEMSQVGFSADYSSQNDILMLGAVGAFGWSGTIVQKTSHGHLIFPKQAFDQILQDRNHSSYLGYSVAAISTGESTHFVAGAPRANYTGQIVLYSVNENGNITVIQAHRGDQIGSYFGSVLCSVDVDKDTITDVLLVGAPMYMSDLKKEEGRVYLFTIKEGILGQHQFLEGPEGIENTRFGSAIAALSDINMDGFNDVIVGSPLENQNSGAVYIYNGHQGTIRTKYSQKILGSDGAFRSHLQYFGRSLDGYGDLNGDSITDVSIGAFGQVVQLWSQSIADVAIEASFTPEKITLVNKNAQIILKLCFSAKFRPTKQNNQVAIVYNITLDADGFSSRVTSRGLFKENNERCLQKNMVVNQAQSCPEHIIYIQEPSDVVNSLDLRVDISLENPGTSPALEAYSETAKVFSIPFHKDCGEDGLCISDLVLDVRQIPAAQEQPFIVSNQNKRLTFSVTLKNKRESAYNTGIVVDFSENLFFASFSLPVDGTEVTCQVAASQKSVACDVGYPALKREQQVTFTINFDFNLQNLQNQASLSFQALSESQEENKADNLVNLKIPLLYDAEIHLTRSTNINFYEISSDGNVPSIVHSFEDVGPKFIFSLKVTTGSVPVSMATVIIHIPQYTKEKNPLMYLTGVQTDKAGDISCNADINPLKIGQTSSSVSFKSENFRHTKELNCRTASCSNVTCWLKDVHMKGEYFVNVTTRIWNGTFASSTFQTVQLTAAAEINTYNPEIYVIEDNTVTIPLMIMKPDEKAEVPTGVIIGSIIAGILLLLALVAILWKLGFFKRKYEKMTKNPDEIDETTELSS
Sequence of human α2β1 integrin on human platelets (human) (chain, as listed by the source limits assumed, chain 2 of 2): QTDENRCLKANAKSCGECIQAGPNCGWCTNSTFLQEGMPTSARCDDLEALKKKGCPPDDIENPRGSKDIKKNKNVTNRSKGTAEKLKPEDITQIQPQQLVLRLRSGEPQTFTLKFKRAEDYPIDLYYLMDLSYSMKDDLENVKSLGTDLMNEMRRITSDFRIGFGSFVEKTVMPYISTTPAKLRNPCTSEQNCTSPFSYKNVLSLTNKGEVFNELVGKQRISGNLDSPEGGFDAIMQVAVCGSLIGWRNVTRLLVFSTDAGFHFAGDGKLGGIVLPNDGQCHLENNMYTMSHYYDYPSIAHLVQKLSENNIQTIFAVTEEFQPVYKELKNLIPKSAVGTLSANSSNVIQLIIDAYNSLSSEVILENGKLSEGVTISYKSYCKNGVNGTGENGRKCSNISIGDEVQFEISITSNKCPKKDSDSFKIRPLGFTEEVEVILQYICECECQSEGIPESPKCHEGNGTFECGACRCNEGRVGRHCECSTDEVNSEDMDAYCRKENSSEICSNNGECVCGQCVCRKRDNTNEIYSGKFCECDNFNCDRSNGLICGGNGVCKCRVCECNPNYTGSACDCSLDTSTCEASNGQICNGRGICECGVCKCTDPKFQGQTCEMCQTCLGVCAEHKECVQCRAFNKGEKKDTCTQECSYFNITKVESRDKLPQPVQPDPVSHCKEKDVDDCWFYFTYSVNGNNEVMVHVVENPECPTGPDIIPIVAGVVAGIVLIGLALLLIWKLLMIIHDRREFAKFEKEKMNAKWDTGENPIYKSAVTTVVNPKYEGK

For anti mouse-IgG-PE (antibody), the % positives worked out at 0.6% in assay [1] and 0.5% in assay [2].

For the origin of these results see US20130156786A1.
